Target: the molecule itself

B1: C. elegans Vps4 (enzyme, UniProt Q9BL83 1-430, looked up)
chain: MSVPALQKAIELVTKATEEDTAGRYDQALRLYDQAIEYFLHAIKYESQGDKQRNAIRDKVGQYLNRAEQIKTHLKDGKTQKKPVKDGKDDSDEDEDKKKFQDKLSGAIVMEKPNVKWTDIAGLEGAKEALKEAVILPIKFPQLFTGNRKPWQGILLFGPPGTGKSYIAKAVATEAGESTFFSISSSDLMSKWLGESEKLVKNLFALAREHKPSIIFIDEIDSLCSARSDNESESARRIKTEFMVQMQGVGLNNDGILVLGATNIPWILDSAIRRRFEKRIYIPLPDIHARKEMFRIDVGKNYNTLTDQDFKVLAERCEGYSGYDISILVKDALMQPVRRVQSATHFKHVSGPSPKDPNVIAHDLLTPCSPGDPHAIAMNWLDVPGDKLANPPLSMQDISRSLASVKPTVNNTDLDRLEAFKNDFGQDGQE
With B1 the “stoichiometry N” value was 6.
